According to patent EP4578463A1, “ENDO-180 TARGETED ANTIBODY-DRUG CONJUGATES” (Oncomatryx Biopharma, S.L., priority 2023, dated 2025):

What was measured:
[1] = biological target: T1, human Endo180-moFc domains I-IV (aa 31-513) (human, UniProt Q9UBG0 31-513); assay: ELISA, immobilized huEndo180-moFc
T1 construct: also called huEndo180 (DI-IV); huEndo180-moFc DI-IV; not shown: murine Fc domain
T1 sequence: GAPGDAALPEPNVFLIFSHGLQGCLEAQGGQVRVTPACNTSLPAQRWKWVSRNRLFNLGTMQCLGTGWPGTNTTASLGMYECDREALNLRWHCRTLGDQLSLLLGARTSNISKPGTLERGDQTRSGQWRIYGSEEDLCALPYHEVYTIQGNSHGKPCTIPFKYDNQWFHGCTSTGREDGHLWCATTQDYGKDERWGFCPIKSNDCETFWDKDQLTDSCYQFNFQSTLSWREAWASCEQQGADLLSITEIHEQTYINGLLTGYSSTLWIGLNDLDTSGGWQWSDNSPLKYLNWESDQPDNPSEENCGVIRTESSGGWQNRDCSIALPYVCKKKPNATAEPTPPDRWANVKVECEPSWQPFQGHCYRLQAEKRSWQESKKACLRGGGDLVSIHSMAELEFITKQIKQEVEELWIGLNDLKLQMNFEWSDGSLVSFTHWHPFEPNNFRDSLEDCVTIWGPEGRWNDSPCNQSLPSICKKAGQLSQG

[2] = biological target: T2, human Endo180-moFc domains I-III (aa 31-370) (human, UniProt Q9UBG0 31-370); assay: ELISA, immobilized huEndo180-moFc
T2 construct: also called huEndo180 (DI-III); huEndo180-moFc DI-III; not shown: murine Fc domain
T2 sequence: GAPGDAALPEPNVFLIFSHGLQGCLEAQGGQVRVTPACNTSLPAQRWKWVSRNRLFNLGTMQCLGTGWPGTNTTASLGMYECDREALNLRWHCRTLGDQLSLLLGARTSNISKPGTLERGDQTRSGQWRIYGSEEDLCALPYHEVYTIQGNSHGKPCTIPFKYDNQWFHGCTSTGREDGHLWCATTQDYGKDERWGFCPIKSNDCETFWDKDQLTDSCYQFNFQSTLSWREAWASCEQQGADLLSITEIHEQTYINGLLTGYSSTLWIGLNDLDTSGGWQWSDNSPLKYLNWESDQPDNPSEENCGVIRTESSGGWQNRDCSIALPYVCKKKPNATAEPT

[3] = biological target: T3, Endo180 on cells (Endo180-expressing HT1080-WT cells; Endo180-transfected HEK293-Endo180 cells) (UniProt Q9UBG0 31-1479); assay: flow cytometry on HT1080-WT cells
T3 construct: whole, on cells; One molecule is used for the endogenous protein on HT1080-WT and the transfected protein on HEK293-Endo180; also called uPARAP
T3 sequence (looked up): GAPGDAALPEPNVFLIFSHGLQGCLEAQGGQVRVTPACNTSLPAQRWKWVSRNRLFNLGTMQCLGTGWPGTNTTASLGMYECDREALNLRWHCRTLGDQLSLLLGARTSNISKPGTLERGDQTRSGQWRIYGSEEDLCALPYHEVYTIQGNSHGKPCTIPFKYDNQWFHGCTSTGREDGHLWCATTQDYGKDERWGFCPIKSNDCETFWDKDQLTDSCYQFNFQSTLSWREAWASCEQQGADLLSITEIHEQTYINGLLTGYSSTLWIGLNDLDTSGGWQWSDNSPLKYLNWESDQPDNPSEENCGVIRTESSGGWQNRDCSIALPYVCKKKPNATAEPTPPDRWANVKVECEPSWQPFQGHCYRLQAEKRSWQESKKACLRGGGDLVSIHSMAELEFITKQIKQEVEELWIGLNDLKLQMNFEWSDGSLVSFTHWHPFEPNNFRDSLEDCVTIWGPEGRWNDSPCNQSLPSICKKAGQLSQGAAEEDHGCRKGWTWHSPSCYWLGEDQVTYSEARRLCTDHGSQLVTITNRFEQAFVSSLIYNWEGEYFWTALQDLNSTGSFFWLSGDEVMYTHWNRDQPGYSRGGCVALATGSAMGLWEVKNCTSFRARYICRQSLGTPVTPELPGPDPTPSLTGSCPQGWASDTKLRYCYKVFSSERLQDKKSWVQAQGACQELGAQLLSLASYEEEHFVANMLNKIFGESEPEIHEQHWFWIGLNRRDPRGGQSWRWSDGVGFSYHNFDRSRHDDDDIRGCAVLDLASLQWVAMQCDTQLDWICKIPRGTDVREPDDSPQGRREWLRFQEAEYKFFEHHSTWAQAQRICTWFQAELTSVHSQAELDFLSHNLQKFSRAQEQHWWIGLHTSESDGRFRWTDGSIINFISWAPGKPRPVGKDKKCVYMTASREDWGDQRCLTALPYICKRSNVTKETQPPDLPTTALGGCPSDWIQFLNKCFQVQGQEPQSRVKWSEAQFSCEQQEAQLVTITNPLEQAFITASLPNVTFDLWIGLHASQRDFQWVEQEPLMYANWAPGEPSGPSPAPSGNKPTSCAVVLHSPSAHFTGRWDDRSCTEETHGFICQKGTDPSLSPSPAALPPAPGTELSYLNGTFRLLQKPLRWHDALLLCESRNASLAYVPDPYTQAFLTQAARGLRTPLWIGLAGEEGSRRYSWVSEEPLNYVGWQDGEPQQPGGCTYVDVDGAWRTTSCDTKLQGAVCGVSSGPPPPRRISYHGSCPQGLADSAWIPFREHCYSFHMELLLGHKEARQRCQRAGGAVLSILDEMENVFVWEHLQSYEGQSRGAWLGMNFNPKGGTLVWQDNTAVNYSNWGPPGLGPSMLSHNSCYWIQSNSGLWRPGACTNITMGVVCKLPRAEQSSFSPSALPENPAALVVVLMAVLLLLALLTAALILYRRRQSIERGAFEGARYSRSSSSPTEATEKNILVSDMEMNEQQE

[4] = biological target: T4, human Endo180-moFc domain I (aa 31-173) (human, UniProt Q9UBG0 31-173); assay: ELISA, immobilized human Endo180-moFc domains
T4 construct: also called huEndo180-moFc DI; not shown: murine Fc domain
T4 sequence: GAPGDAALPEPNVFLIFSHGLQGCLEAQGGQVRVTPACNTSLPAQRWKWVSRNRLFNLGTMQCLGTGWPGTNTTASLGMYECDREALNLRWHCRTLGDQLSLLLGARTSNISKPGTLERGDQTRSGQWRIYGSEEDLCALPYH

[5] = biological target: T3, Endo180 on cells (Endo180-expressing …); assay: flow cytometry on HEK293-Endo180 cells

EC50 [1]: 0.4 nM
EC50 [2]: 0.5 nM
EC50 [3]: 0.4 nM
EC50 [5]: 1.5 nM
B1: Human IgG1 G7V with a wildtype γ1 heavy chain (antibody, V domains shown)
VH: EVQLVESGGGLVKPGGSLRLSCAASGFTFSSYSMNWVRQAPGKGLEWVANIKPDGSERHSVDSVKGRFTISRDNSKNSLYLQMNSLRAEDTAVYYCARPGAGRLDYWGQGTLVTVSS
VL: SSELTQDPAVSVALGQTVRITCQGDSLRSYYASWYQQKPGQAPVLVVYGKNNRPSGIPDRFSGSSSGNTASLTITGAQAEDEADYYCNSRDSSGNPWAFGGGTKVTVLG
notes: Naked antibody, made in HEK293-6E (lab scale) or CHO (1 L scale); also called IgG G7V; OMTX007-G7V
binding result [4]: no binding (tested: titrated from 0.1 pM to 100 nM)
